In patent US20240209076A1 (KODIAK SCIENCES, published 2024):
Changes are numbered by the printed parent chain. Numbers in names are those of the source. Blank lines part the entries; values can stand above or below the binder they belong to.

Target: T1, human IL-6 (human, UniProt P05231 30-212)
T1 construct: IL-6 flowed over captured antibodies
Assay: SPR Biacore, supernatant Ab on Protein A chip, 37 C
Description: Antibodies were captured on a Protein A chip (GE) by injecting 1:20 cell supernatant dilutions at 10 μL/min for 60 seconds. […] The sensor chip was regenerated by a 60 seconds injection of 10 mM Glycine pH 1.7 at the flow rate of 50 μL/min. […] For this setup, 1 μg/mL of purified antibody was injected over a Protein A chip at 10 μL/min for 25 seconds. […] The sensor chip was regenerated by a 60 seconds injection of 10 mM Glycine pH 1.7 at flow rate of 50 μL/min. Data analysis for supernatant and purified samples were performed using BIAevaluation software (GE). All sensorgrams were double reference subtracted and fit using a 1:1 Langmuir binding model.

T1 sequence (P05231 30-212 limits assumed): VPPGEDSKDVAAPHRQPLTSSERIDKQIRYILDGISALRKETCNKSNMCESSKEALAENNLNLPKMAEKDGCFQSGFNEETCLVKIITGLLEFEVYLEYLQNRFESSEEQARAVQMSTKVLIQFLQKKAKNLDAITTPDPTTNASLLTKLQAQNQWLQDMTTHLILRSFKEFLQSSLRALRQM

B1: anti-IL-6 antibody, heavy chain S35K, G66D / light chain M32L, M50D, N52S, M88Q (antibody, IgG1, V domains shown)
VH: EVQLVESGGGLVQPGGSLRLSCAASGFTFSPFAMKWVRQAPGKGLEWVAKISPGGSWTYYSDTVTDRFTFSLDTSKSTAYLQMNSLRAEDTAVYYCARQLWGYYALDIWGQGTLVTVSS
VL: DIQLTQSPSSLSASVGDRVTITCSASISVSYLYWYQQKPGKAPKLLIYDDSSLASGVPSRFSGSGSGTDFTLTISSLQPEDFATYYCQQWSGYPYTFGQGTKVEIK
notes: Full IgG1 (Expi293); VL = variant III
- Kd: 2.64 nM
- koff: 0.00346 s⁻¹
- kon: 1.31e+06 M⁻¹ s⁻¹

B4: anti-IL-6 antibody, heavy chain S35Q, G66D / light chain M32L, M50D, N52S, M88Q (antibody, IgG1, V domains shown)
VH: B1 VH with K35Q
VL: B1 VL
notes: as for B1
- Kd: 0.3 nM
- koff: 0.000626 s⁻¹
- kon: 2.09e+06 M⁻¹ s⁻¹

B5: anti-IL-6 antibody, heavy chain S35T, G66D / light chain M32L, M50D, N52S, M88Q (antibody, IgG1, V domains shown)
VH: B1 VH with K35T
VL: B1 VL
notes: as for B1
- Kd: 0.498 nM
- koff: 0.000711 s⁻¹
- kon: 1.43e+06 M⁻¹ s⁻¹

B8: anti-IL-6 antibody, heavy chain S35V, G66D / light chain M32L, M50D, N52S, M88Q (antibody, IgG1, V domains shown)
VH: B1 VH with K35V
VL: B1 VL
notes: as for B1
- Kd: 1.33 nM
- koff: 0.00137 s⁻¹
- kon: 1.03e+06 M⁻¹ s⁻¹

B11: anti-IL-6 antibody, heavy chain S35Y, G66D / light chain M32L, M50D, N52S, M88Q (antibody, IgG1, V domains shown)
VH: B1 VH with K35Y
VL: B1 VL
notes: as for B1
- Kd: 3.43 nM
- koff: 0.00404 s⁻¹
- kon: 1.18e+06 M⁻¹ s⁻¹

B13: anti-IL-6 antibody, heavy chain S35P, G66D / light chain M32L, M50D, N52S, M88Q (antibody, IgG1, V domains shown)
VH: B1 VH with K35P
VL: B1 VL
notes: as for B1
- Kd: 27.1 nM
- koff: 0.00548 s⁻¹
- kon: 202000 M⁻¹ s⁻¹

B14: anti-IL-6 antibody, heavy chain S35W, G66D / light chain M32L, M50D, N52S, M88Q (antibody, IgG1, V domains shown)
VH: B1 VH with K35W
VL: B1 VL
notes: as for B1
- Kd: 34.6 nM
- koff: 0.00591 s⁻¹
- kon: 171000 M⁻¹ s⁻¹

B15: anti-IL-6 antibody, heavy chain S35L, G66D / light chain M32L, M50D, N52S, M88Q (antibody, IgG1, V domains shown)
VH: B1 VH with K35L
VL: B1 VL
notes: as for B1
- Kd: 2.59 nM
- koff: 0.00243 s⁻¹
- kon: 942000 M⁻¹ s⁻¹

Second part, the binder after the results:

- Kd: 0.268 nM
- koff: 0.000458 s⁻¹
- kon: 1.7e+06 M⁻¹ s⁻¹
B2: anti-IL-6 antibody, heavy chain T63A, G66D / light chain M32L, M50D, N52S, M88Q (antibody, IgG1, V domains shown)
VH: B1 VH with K35S, T63A
VL: B1 VL
notes: as for B1

- Kd: 0.288 nM
- koff: 0.000446 s⁻¹
- kon: 1.55e+06 M⁻¹ s⁻¹
B3: anti-IL-6 antibody, heavy chain T63I, G66D / light chain M32L, M50D, N52S, M88Q (antibody, IgG1, V domains shown)
VH: B1 VH with K35S, T63I
VL: B1 VL
notes: as for B1

- Kd: 0.261 nM
- koff: 0.00045 s⁻¹
- kon: 1.73e+06 M⁻¹ s⁻¹
B6: anti-IL-6 antibody, heavy chain T63G, G66D / light chain M32L, M50D, N52S, M88Q (antibody, IgG1, V domains shown)
VH: B1 VH with K35S, T63G
VL: B1 VL
notes: as for B1

- Kd: 0.249 nM
- koff: 0.000413 s⁻¹
- kon: 1.66e+06 M⁻¹ s⁻¹
B7: anti-IL-6 antibody, heavy chain T63D, G66D / light chain M32L, M50D, N52S, M88Q (antibody, IgG1, V domains shown)
VH: B1 VH with K35S, T63D
VL: B1 VL
notes: as for B1

- Kd: 0.274 nM
- koff: 0.000459 s⁻¹
- kon: 1.67e+06 M⁻¹ s⁻¹
B9: anti-IL-6 antibody, heavy chain T63F, G66D / light chain M32L, M50D, N52S, M88Q (antibody, IgG1, V domains shown)
VH: B1 VH with K35S, T63F
VL: B1 VL
notes: as for B1

- Kd: 0.283 nM
- koff: 0.000454 s⁻¹
- kon: 1.6e+06 M⁻¹ s⁻¹
B10: anti-IL-6 antibody, heavy chain T63L, G66D / light chain M32L, M50D, N52S, M88Q (antibody, IgG1, V domains shown)
VH: B1 VH with K35S, T63L
VL: B1 VL
notes: as for B1

- Kd: 0.28 nM
- koff: 0.000481 s⁻¹
- kon: 1.72e+06 M⁻¹ s⁻¹
B12: anti-IL-6 antibody, heavy chain T63H, G66D / light chain M32L, M50D, N52S, M88Q (antibody, IgG1, V domains shown)
VH: B1 VH with K35S, T63H
VL: B1 VL
notes: as for B1
